Source: article PMC5726920

T1: heart isozyme of murine fatty acid binding protein (mouse), P11404
T1 chain: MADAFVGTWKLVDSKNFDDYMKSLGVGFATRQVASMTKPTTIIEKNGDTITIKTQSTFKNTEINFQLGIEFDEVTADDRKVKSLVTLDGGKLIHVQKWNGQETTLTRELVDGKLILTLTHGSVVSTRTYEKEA

T2: protein deglycase DJ-1, Q99497
T2 chain: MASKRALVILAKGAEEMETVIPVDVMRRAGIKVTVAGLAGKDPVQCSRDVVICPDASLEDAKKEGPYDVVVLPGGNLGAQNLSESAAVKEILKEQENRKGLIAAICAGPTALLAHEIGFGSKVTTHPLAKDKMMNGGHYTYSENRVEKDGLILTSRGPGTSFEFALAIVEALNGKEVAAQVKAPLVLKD


Legend:
[1] = target: T1, heart isozyme of murine fatty acid …; assay: native MS; settings: remark: other sources report otherwise
[2] = target: T2, protein deglycase DJ-1, Q99497; assay: native MS; settings: remark: other sources report otherwise

stoichiometry N [1] | stoichiometry N [2] | Binder
2 |  | heart isozyme of murine fatty acid binding protein, P11404 1-133 (natural protein) MADAFVGTWKLVDSKNFDDYMKSLGVGFATRQVASMTKPTTIIEKNGDTITIKTQSTFKNTEINFQLGIEFDEVTADDRKVKSLVTLDGGKLIHVQKWNGQETTLTRELVDGKLILTLTHGSVVSTRTYEKEA
 | 2 | protein deglycase DJ-1, Q99497 1-189 (enzyme) MASKRALVILAKGAEEMETVIPVDVMRRAGIKVTVAGLAGKDPVQCSRDVVICPDASLEDAKKEGPYDVVVLPGGNLGAQNLSESAAVKEILKEQENRKGLIAAICAGPTALLAHEIGFGSKVTTHPLAKDKMMNGGHYTYSENRVEKDGLILTSRGPGTSFEFALAIVEALNGKEVAAQVKAPLVLKD
